Source: the supplement of paper PMC10567573

B1: BCL2L13 (parent)
chain: MASSSTVPLGFHYETKYVVLSYLG

Variants of: B1
Assay: protein stability index of a GFP-peptide fusion (GPS, HEK-293T) (PSI 1-6); higher = more stable
Conditions: c terminus: a fixed tail appended
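Further: lentivirally expressed fusions sorted by FACS into six bins by GFP to DsRed ratio, PSI derived from sequencing read proportions per bin multiplied by bin number.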

Protein stability index: each site, then its substitutions
V18: Q 1.37 | E 2.02 | D 1.89 | I 2.81 | A 2.24 | T 2.88 | P 1.91 | Y 2.6 | M 2.55 | F 3.21 | W 1.84 | G 1.53 | K 2.31 | N 1.56 | R 1.88 | S 1.79 | H 1.88 | L 1.88
G10: H 3.03 | T 3.54 | M 2.73 | F 2.22 | I 1.73 | E 2.13 | V 2.14 | C 2.1 | R 3.6 | D 2.02 | Q 1.69 | S 2.77 | N 2.93 | Y 4.41 | A 2.01 | L 2.52 | W 2.57 | K 3.29
S3: M 2.72 | T 3.21 | Y 2.64 | R 2.97 | D 2.57 | N 2.59 | F 1.99 | V 3 | P 2.9 | Q 2.21 | H 2.77 | G 3.46 | C 2.59 | K 2.62 | E 3.48 | I 3.39
K16: L 2.04 | Y 3.26 | N 3.56 | W 2.56 | R 2.55 | A 2.64 | S 2.81 | I 2.74 | Q 2.6 | V 2.53 | P 1.83 | D 3.26 | G 2.38 | F 2.32 | E 4.22 | H 1.46 | C 4.41 | M 2.61
S5: F 2.55 | K 1.91 | I 2.74 | L 2.16 | E 1.53 | W 2.02 | P 2.24 | G 2.2 | T 2.71 | C 2.11 | R 2.4 | V 2.17 | Q 2.96 | N 2.72 | D 2.72 | H 2.09 | Y 3.24 | M 2.51 | A 1.72
E14: R 2.14 | Y 2.64 | D 2.67 | P 2.24 | S 2.62 | A 2.21 | G 2.09 | Q 3.35 | M 3.1 | T 2.3 | H 1.75 | W 3.62 | K 2.72 | I 2.82 | V 2.46 | F 1.81 | N 2.48
L20: Q 2.19 | E 1.78 | F 3.51 | C 2.58 | I 1.71 | T 2.17 | G 1.74 | H 2.01 | W 2.22 | Y 2.88 | N 1.65 | M 2.37 | P 1.7 | S 1.69 | R 1.48 | D 2.18 | A 2.12 | K 2.52 | V 2.82
L9: E 2.33 | V 2.06 | C 3.98 | H 2.31 | F 1.33 | Q 2.62 | S 3.42 | I 3.14 | W 3.66 | M 2.35 | R 1.79 | Y 2.57 | D 2.32 | T 2.45 | A 2 | K 2.57 | N 3.25 | P 2.1 | G 2.75
P8: F 2.74 | A 2.97 | V 2.15 | Q 2.54 | E 2.25 | H 2.22 | L 1.66 | I 2.73 | T 2.53 | K 3.91 | G 4.24 | D 2.98 | W 3.73 | S 2.54 | M 3.28 | R 3.92 | N 3.63 | Y 3.53
F11: C 2.63 | S 1.9 | Y 2.49 | I 2.02 | N 2.69 | R 1.71 | K 2.63 | E 1.94 | G 1.35 | L 2.36 | T 1.81 | M 2.82 | D 2.03 | Q 2.85 | A 2.41 | P 2.33 | W 1.89 | H 1.67
T6: K 2.59 | V 1.82 | P 2.59 | W 2.27 | Q 2.26 | L 2.14 | G 1.94 | R 2.82 | M 2.4 | D 2.29 | C 1.67 | I 2.35 | A 2.45 | S 2.95 | E 3.45 | H 3.22 | N 2.58 | Y 2.66
Y13: L 2.59 | M 2.14 | N 1.7 | C 2.25 | W 2.16 | H 2.27 | T 2.28 | K 1.44 | S 2.07 | I 2.65 | P 1.84 | F 3.43 | E 1.59 | Q 1.39 | V 2.51 | D 2.35 | G 2.14 | A 2.82 | R 1.85
V7: I 2.72 | P 2.14 | S 3.11 | W 2.36 | G 2.08 | M 2.35 | A 2.78 | Y 3.3 | H 2.67 | L 3.03 | C 3.72 | N 3.19 | F 2.17 | K 2.84 | D 3.29 | R 2.33 | E 3.31 | T 2.36
V19: L 2.29 | R 1.41 | F 1.5 | K 1.34 | T 3.32 | E 1.7 | M 3.27 | C 2.34 | H 1.73 | P 2.2 | S 2.19 | N 1.94 | Y 2.63 | W 1.91 | A 1.99 | I 3.19 | Q 1.71 | G 2.09 | D 1.45
H12: D 2.39 | T 1.81 | E 2.55 | Y 3.26 | V 2.67 | I 2.75 | F 3.51 | A 2.3 | N 2.12 | G 2.11 | K 2.23 | R 1.91 | M 2.39 | S 3.12 | P 2.5 | Q 2.67 | L 1.49 | C 3.05 | W 2.66
S21: I 2.36 | K 1.45 | A 3.51 | L 3.41 | E 1.24 | D 2.24 | N 2.4 | H 2.27 | G 1.62 | C 3.12 | F 3.84
S4: D 2.74 | I 2.21 | W 2.93 | Q 3.25 | K 2.21 | A 2.6 | H 2.24 | E 4.38 | M 1.76 | P 3.27 | T 2.81 | G 2.49 | V 2.91 | Y 2.38 | N 1.7
T15: Y 2.75 | D 2.03 | M 2.79 | I 3.13 | E 2.61 | Q 2.84 | L 2.1 | S 1.11 | P 2.06 | F 1.5 | K 1.4 | W 2.05 | H 1.91 | R 1.36 | C 1.71 | V 3.06 | N 1.75 | A 1.86 | G 1.34
Y17: C 2.48 | K 2.1 | G 2 | T 1.62 | P 1.95 | S 1.66 | A 2.67 | L 2.22 | H 1.95 | Q 1.84 | F 3.51 | M 3.56 | E 1.86 | R 1.66 | D 1.73 | N 1.62
